The record followed here is US20180037654A1 (ADURO BIOTECH HOLDINGS EUROPE B V, published 2018).

Numbering of substitutions follows the chain as printed. Numbers in names are those of the source.

The chains are these.
B1: hCTLA4.27H5L3 (antibody, human IgG4 S228P, kappa, V domains shown)
VH: EVQLLQAGAVLARPGTSVKISCKASGYSFTTYWMNWVKQRPGKGLEWIGMIHPSDSETSLNQAFKDKAKLTAATSASIAYLEFSSLTNEDSAVYYCARIGRRNPYYFDYWGQGTLVTVSS
VL: DIQMTQSPSSLSASVGDTVTITCRPSENLYTNLAWYQQKPGKAPKLLLYGATNLADGVPSRFSGSGSGTDYTLTISSLQSEDFATYYCQHLWGTPFTFGQGTKLEIKR
notes: Humanized, human IgG4 (S228P) kappa; H5 read as hCTLA4.27VH5, L3 as hCTLA4.27VL3
B2: hCTLA4.27H3L2 (antibody, human IgG4 S228P, kappa, V domains shown)
VH: EVQLVQSGAVVAKPGSSVKVSCKASGYSFTTYWMNWVRQAPGQGLEWMGMIHPSDSETSLNQAFKDRVTITADKSTSTAYMELSSLTSEDTAVYYCARMGRRNPYYFDYWGQGTTVTVSS
VL: B1 VL with T18R, L48I, D70E, Y71F, T72S, T74S, S80P, Q100G, L104V
notes: Humanized, human IgG4 (S228P) kappa; H3 read as hCTLA4.27VH3, L2 as hCTLA4.27VL2
B3: hCTLA4.27H1L2 (antibody, human IgG4 S228P, kappa, V domains shown)
VH: B1 VH with A7S, K43Q, I99M
VL: B1 VL with T18R, L48I, D70E, Y71F, T72S, T74S, S80P, Q100G, L104V
notes: Humanized, human IgG4 (S228P) kappa; H1 read as hCTLA4.27VH1, L2 as hCTLA4.27VL2
B4: hCTLA4.27H2L3 (antibody, human IgG4 S228P, kappa, V domains shown)
VH: B2 VH with V11L, A12V, S16A, A40R, Q43K, M48I, R67K, K74E, E82Q, T87R
VL: B1 VL
notes: Humanized, human IgG4 (S228P) kappa; H2 read as hCTLA4.27VH2, L3 as hCTLA4.27VL3
B5: hCTLA4.27H5L2 (antibody, human IgG4 S228P, kappa, V domains shown)
VH: B1 VH
VL: B1 VL with T18R, L48I, D70E, Y71F, T72S, T74S, S80P, Q100G, L104V
notes: Humanized, human IgG4 (S228P) kappa; H5 read as hCTLA4.27VH5, L2 as hCTLA4.27VL2
B6: hCTLA4.27H6L3 (antibody, human IgG4 S228P, kappa, V domains shown)
VH: B1 VH with Q6E, A7S, A9P, V10E, A12V, T16S, A68V, T87R, I99M
VL: B1 VL
notes: Humanized, human IgG4 (S228P) kappa; H6 read as hCTLA4.27VH6, L3 as hCTLA4.27VL3
B7: hCTLA4.27H2L1 (antibody, human IgG4 S228P, kappa, V domains shown)
VH: B2 VH with V11L, A12V, S16A, A40R, Q43K, M48I, R67K, K74E, E82Q, T87R
VL: B1 VL with T18R, S80P
notes: Humanized, human IgG4 (S228P) kappa; H2 read as hCTLA4.27VH2, L1 as hCTLA4.27VL1
B8: hCTLA4.27H6L1 (antibody, human IgG4 S228P, kappa, V domains shown)
VH: B1 VH with Q6E, A7S, A9P, V10E, A12V, T16S, A68V, T87R, I99M
VL: B1 VL with T18R, S80P
notes: Humanized, human IgG4 (S228P) kappa; H6 read as hCTLA4.27VH6, L1 as hCTLA4.27VL1
B9: hCTLA4.27H1L3 (antibody, human IgG4 S228P, kappa, V domains shown)
VH: B1 VH with A7S, K43Q, I99M
VL: B1 VL
notes: Humanized, human IgG4 (S228P) kappa; H1 read as hCTLA4.27VH1, L3 as hCTLA4.27VL3
B10: hCTLA4.27H6L5 (antibody, human IgG4 S228P, kappa, V domains shown)
VH: B1 VH with Q6E, A7S, A9P, V10E, A12V, T16S, A68V, T87R, I99M
VL: B1 VL with S7A, T18R, S80A, Q100G
notes: Humanized, human IgG4 (S228P) kappa; H6 read as hCTLA4.27VH6, L5 as hCTLA4.27VL5
B11: hCTLA4.27H3L5 (antibody, human IgG4 S228P, kappa, V domains shown)
VH: B2 VH
VL: B1 VL with S7A, T18R, S80A, Q100G
notes: Humanized, human IgG4 (S228P) kappa; H3 read as hCTLA4.27VH3, L5 as hCTLA4.27VL5
B12: hCTLA4.27H4L5 (antibody, human IgG4 S228P, kappa, V domains shown)
VH: B2 VH with V10E, A12K, S16A, I70M, A72R, K74T, A79V, T87R, T115L
VL: B1 VL with S7A, T18R, S80A, Q100G
notes: Humanized, human IgG4 (S228P) kappa; H4 read as hCTLA4.27VH4, L5 as hCTLA4.27VL5
B13: 10D1 (antibody, V domains shown)
VH: QVQLVESGGGVVQPGRSLRLSCAASGFTFSSYTMHWVRQAPGKGLEWVTFISYDGNNKYYADSVKGRFTISRDNSKNTLYLQMNSLRAEDTAIYYCARTGWLGPFDYWGQGTLVTVSS
VL: not shown

The target of one test is T1, human CTLA-4 (Y166G and Y183G) expressed on CHO-K1.hCTLA-4 cells (human, UniProt P16410 36-223). The experiment in a line: CELISA, blockade of biotinylated hCD80/Fc binding to CHO-K1.hCTLA-4 cells. The procedure: CHO-K1.hCTLA-4 cells were seeded in tissue culture plates and incubated at 37° C., 5% CO₂ and 95% humidity in culture medium. Once the cells were confluent culture medium was removed and cells were incubated for 1 hour with the humanized hCTL4.27 antibody variants (10 μg/ml and dilutions thereof) at 37° C., 5% CO₂ and 95% humidity. […] Cells were then washed with PBST followed by addition of Streptavidin-HRP conjugate on the cells, which was incubated for 1 hour at 37° C., 5% CO₂ and 95% humidity. […] Reactions were stopped with 0.5 M H₂SO₄ and absorbances were read at 450 and 610 nm. […] IC50 values represent the concentration at which half of the inhibition is observed.
T1 sequence (P16410 36-223 Y201G/Y218G limits assumed): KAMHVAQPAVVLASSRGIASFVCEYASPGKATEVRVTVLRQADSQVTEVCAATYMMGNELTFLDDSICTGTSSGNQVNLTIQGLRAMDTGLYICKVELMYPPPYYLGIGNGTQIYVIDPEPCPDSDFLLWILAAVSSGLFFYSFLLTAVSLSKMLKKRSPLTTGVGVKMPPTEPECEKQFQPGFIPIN
On to B1, for which the half-maximal inhibitory concentration (IC50) (as a rule, the midpoint of a concentration-inhibition curve) came to 2570 pM.

For the molecule B2, the 50% inhibitory concentration (IC50) was found to be 2060 pM.

Take B3: the half-inhibitory concentration (IC50) came out at 2720 pM.

B4: the IC50 worked out at 2970 pM.

As to B5, the IC50 was determined as 10300 pM.

For B6, the IC50 is 1820 pM.

Consider B7, for which the IC50 amounted to 2980 pM.

Molecule B8 yielded a 50% inhibitory concentration (IC50) of 2060 pM.

Consider B9, for which the concentration for half-maximal inhibition (IC50) was found to be 3130 pM.

B10 yielded an IC50 of 2570 pM. This IC50 and that of the molecule before are within 1.5-fold of each other.

B11 registered an IC50 of 3670 pM.

B12 gave a half-maximal inhibitory concentration (IC50) of 3080 pM.

The target of another test is T1, human CTLA-4 (Y166G and Y183G) …. Kind of test: CELISA on CHO-K1.hCTLA-4 cells. The procedure:
Binding of the humanized antibodies to hCTLA-4 was studied in CELISA format. CHO-K1.hCTLA-4 cells were seeded in culture medium (DMEM-F12 (Gibco) with 10% Fetal Bovine Serum (Hyclone) and Pen/Strep (Gibco)) in tissue culture plates and cultured at 37° C., 5% CO₂ and 95% humidity until they were confluent. Subsequently, culture medium was removed and cells were incubated for 1 hour at 37° C., 5% CO₂ and 95% humidity with purified hCTLA-4 antibodies (10 μg/ml and dilutions thereof). Next, cells were washed with PBS/0.05% Tween (PBST) and incubated for 1 hour at 37° C., 5% CO₂ and 95% humidity with goat-anti-human IgG-HRP (Southern Biotechnology) or goat-anti-mouse IgG-HRP (Southern Biotechnology). Subsequently, cells were washed 3 times with PBST and anti-hCTLA-4 immunoreactivity was visualized with TMB Stabilized Chromagen (Invitrogen). Reactions were stopped with 0.5 M H₂SO₄ and absorbances were read at 450 and 610 nm.
For B1, a half-maximal effect (EC50) was put at 42 pM.

In the case of B2, the midpoint of the response, the EC50, lay at 65 pM.

In the case of B3, the half-maximal effective concentration (EC50) (as a rule, the concentration giving half of the maximal effect) came out at 40 pM.

The molecule B4 had an EC50 of 51 pM.

As to B5, it took 42 pM to reach a half-maximal effect (EC50). This EC50 and that of the molecule before are within 1.5-fold of each other.

Molecule B6 showed an EC50 of 28 pM. Against the preceding molecule, the EC50 is about 1.5-fold lower.

On to B7, for which the EC50 was 42 pM.

Consider B8, for which the EC50 was found to be 44 pM.

Regarding B9, it took 45 pM to reach a half-maximal effect (EC50).

Molecule B10 yielded a concentration giving a half-maximal response (EC50) of 36 pM.

B11 registered a 50% effective concentration (EC50) of 82 pM.

For B12, the concentration for a half-maximal effect (EC50) amounted to 61 pM. The EC50 values of the last two molecules are within 1.5-fold of each other.

In a further test the target is T2, Mou-Hum-CTLA-4 (mouse/human chimera).
T2 construct: Mouse residues on strand 1, 2, 5 and 6 and human residues on strand 3, 4, 7 and 8; transiently expressed on CHO-K1 cells; also called mouse-human variant; mouse-human exchange mutant
T2 chain: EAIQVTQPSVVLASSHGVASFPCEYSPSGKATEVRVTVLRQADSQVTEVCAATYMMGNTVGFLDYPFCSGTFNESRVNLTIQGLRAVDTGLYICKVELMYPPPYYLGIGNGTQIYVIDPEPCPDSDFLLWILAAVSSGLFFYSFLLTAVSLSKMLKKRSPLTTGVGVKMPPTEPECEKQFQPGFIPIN
The experiment in a line: CELISA on CHO-K1 cells transiently transfected with Mou-Hum-CTLA-4, panel Mouse/Human. The method, then: The cDNAs encoding these constructs (SEQ ID NO: 41 and 43, respectively) were synthesized and subcloned into the pCI-Neo vector (GeneArt). […] To this end CHO-K1 cells were transiently transfected, using Lipofectamine 2000 (Invitrogen), with the pCI-Neo vectors expressing human CTLA-4 (hCTLA-4), mouse CTLA-4 (mCTLA-4) (SEQ ID NO: 45), Hum-Mou-CTLA-4, and Mou-Hum-CTLA-4 respectively. The transfected cells were cultured at 37° C., 5% CO₂ and 95% humidity in medium (DMEM-F12 (Gibco) with 5% New Born Calf serum (Biowest) and Pen/Strep (Gibco)) until confluent. Subsequently, cells were trypsinized and seeded in tissue culture plates and cultured at 37° C., 5% CO₂ and 95% humidity in culture medium until confluent. Then, culture medium was removed and cells were incubated for 1 hour at 37° C., 5% CO₂ and 95% humidity with hCTLA-4 antibodies. Next, cells were washed with PBS/0.05% Tween (PBST) and incubated for 1 hour at 37° C., 5% CO₂ and 95% humidity with 1:2,000 goat-anti-human IgG-HRP (Jackson Immunoresearch). After that, cells were washed 3 times with PBST and anti-CTLA-4 immunoreactivity was visualized with TMB Stabilized Chromagen (Invitrogen).
As for B13, the concentration for a half-maximal effect (EC50 (read off the curve)) (usually the midpoint of the concentration-response curve) was approximately 70 pM.
